Values quoted from earlier work, collected in PMC6325607.

Tested on: Cys149

For “Cytosolic glyceraldehyde-3-phosphate dehydrogenase (GAPDH) (Arabidopsis thaliana)”, the pKa is given as 5.65.
